Assays:
[1] = biological target: GST-fused AjTmod after the addition of His-fused STPKLRR (phosphorylated AjTmod) (Apostichopus japonicus); experiment: MST; as a4, but His-fused STPKLRR (5 uM) added to GSTTmod/His-fused actin and incubated for 10 min
[2] = biological target: GST-fused AjTmod (complete AjTmod sequence) (Apostichopus japonicus); experiment: MST; Monolith NT.115; NT-647-NHS labelled protein (about 5 uM) with 16 serial concentrations of unlabelled His-fused actin; 50 mM Tris-HCl pH 8.0, 0.02% Tween 20; 25 °C

Kd [1]: 7.16 nM | Kd [2]: 1.46 nM
Substance: His-fused actin (natural protein)

From article PMC10237653
